Data on 2 molecules can be found in publication PMC7458460 (Science Advances, 2020).

The assay concerns the target CN391 (CNA_(1–391)/CNB_(1–170)) (UniProt Q08209 1-391; P63098 1-170). Kind of assay: ITC. (In general: ITC needs no label: the signal is the heat of the interaction.)

Chain of CN391 (CNA_(1–391)/CNB_(1–170)) (Q08209 1-391, chain 1 of 2): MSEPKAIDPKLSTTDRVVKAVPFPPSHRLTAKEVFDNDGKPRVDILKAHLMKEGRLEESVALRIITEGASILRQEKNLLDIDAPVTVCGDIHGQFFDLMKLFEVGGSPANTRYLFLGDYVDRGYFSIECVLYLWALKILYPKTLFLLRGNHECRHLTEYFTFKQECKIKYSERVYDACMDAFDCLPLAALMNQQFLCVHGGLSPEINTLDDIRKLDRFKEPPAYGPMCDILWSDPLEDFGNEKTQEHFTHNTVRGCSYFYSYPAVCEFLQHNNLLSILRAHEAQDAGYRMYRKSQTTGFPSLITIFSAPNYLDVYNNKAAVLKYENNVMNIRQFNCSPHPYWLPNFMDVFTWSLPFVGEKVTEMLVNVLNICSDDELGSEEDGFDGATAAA
Chain of CN391 (CNA_(1–391)/CNB_(1–170)) (P63098 whole entry, chain 2 of 2): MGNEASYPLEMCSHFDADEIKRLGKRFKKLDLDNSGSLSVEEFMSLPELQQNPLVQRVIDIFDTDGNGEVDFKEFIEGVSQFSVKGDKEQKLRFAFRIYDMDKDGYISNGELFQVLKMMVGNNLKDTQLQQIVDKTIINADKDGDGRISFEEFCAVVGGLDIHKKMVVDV

B1: RCAN1 CN-binding domain (residues 89 to 197) (domain or fragment)
chain: not shown
A word on the Kd: it is the free concentration of one partner at which half of the binding sites on the other are occupied at equilibrium, for simple one-to-one binding. With B1, binding was put at a Kd of 16 ± 5 nM and the dH is -30.7 ± 0.8 kcal/mol.

B2: p38-phosphorylated RCAN1 (residues 89 to 197) (domain or fragment)
chain: not shown
modifications: pS108, pS112, pT124, pT153, pT192 (pT152 partially, much more slowly)
Consider B2, for which the dissociation constant Kd was 429 ± 85 nM and the dH was -32.4 ± 1.6 kcal/mol.
